# From article PMC12702981, “Population pharmacokinetics of efpeglenatide in individuals with obesity and with type 2 diabetes” (Frontiers in Pharmacology, 2025)
# Marks after values point to notes of the source that are not given here.
# How the values were obtained:
# [1] = ref Geiser et al., 2016; cited from earlier work
# Source text: This finding is aligned with the pharmacokinetic properties of Fc-fusion proteins, in which neonatal Fc receptor (FcRn)-mediated recycling limits proteolytic catabolism and prolongs systemic residence ([Richter and Jacobsen, 2014]).
# [2] = human, in vivo
# Protocol: The population PK analysis was performed based on pooled data from one phase 1 and five phase 2 studies of efpeglenatide. […] Dosing regimens ranged from once weekly (QW) to every other week (Q2W) and once monthly (QM) subcutaneous administration.
# The pooled dataset comprised six clinical studies (five studies in patients with T2DM and one study in obesity). A total of 3,596 plasma efpeglenatide concentration measurement were collected from 498 subjects across six clinical studies at prespecified time points.
# All samples were analyzed at certified laboratories using validated analytical method. Serum concentrations of efpeglenatide were quantified using a validated Enzyme-Linked Immunosorbent Assay (ELISA) method.
# For the PK analysis, 3,316 post-dose plasma concentrations above the lower limit of quantification (LLOQ) were used in the model estimation. All pre-dose concentrations before the first administration were excluded from the dataset. Post-dose samples below the limit of quantification (BLQ) were treated as missing (i.e., not included in the analysis). In total, 117 pre-dose samples (3.25%) and 153 post-dose samples (4.0%) were BLQ.
# The base PK model evaluation was begun with a one-compartment disposition model with first-order elimination, with additional refinement to better characterize the absorption phase. […] The first one of the two divided doses was described as the first order absorption after bolus doses into depot compartment, capturing the first peak during the absorption phase. The second part of the dose was introduced to describe the second peak with time delay during absorption phase, which was described using a transit compartment model ([Savic et al., 2007]). […] After the absorption model was established, various compartment models were evaluated.
# The transit compartment model describes the delay in absorption as the sequential passage of the drug through a chain of transit compartments, each connected by a first-order transit rate constant (Ktr). The number of transit compartments (n) and the mean transit time (MTT) were estimated from the data, with Ktr calculated as (n+1)/MTT. Drug exiting the final transit compartment entered the absorption compartment and was transferred to the central compartment via first-order absorption, as described by Equations 1–3.
# The amount of drug administered subcutaneously (Asc) in the depot, central compartment (Ac) and peripheral compartment (Ap) were described using the following differential Equations 4–6: dAsc/dt=Dose·BIOA1+Dose·BIOA2·Ktr·t^n·e^−Ktr·t/2π·n^n+0.5·e^−n−ka·Asc (4) dAc/dt=ka·Asc−Ac/Vc·CL−Ac/Vc·Q+Ap/Vp·Q (5) dAp/dt=Ac/Vc·Q−Ap/Vp·Q (6)
# To confine the estimated fraction values to the range between 0 and 1 and to allow implementation of interindividual variability, a logit transformation was applied. BIOA1 and BIOA2 represent the fractions of the administered dose entering the depot compartment via the bolus administration route and the delayed absorption route, respectively. The transformation was defined as shown in Equation 7 ([Adedokun et al., 2020]): BIOA1=e^BIOF/1+e^BIOF,BIOA2=1/1+e^BIOF (7) where BIOF is an unbounded parameter ( −∞∼∞ ) representing the logit-transformed value of BIOA1, and BIOA2 = 1-BIOA1
# The population PK modeling analysis was performed using NONMEM version 7.5 (ICON Development Solutions, Hanover, MD, United States). The first-order conditional estimation method with interaction (FOCEI) was used to approximate the marginal likelihood and facilitate estimation of population model parameters.
# [3] = ref Yoon et al., 2020; cited from earlier work
# Source text: Gastrointestinal (GI) adverse events are the most frequent class-related tolerability issues with GLP-1 receptor agonists, and stepwise dose-escalation regimens are commonly used to mitigate these events ([U.S. Food and Drug Administration, 2014]; [Davies et al., 2022]). […] Efpeglenatide has shown an adverse event profile consistent with this drug class ([Yoon et al., 2020]; [Gerstein et al., 2021]). The model-derived effective half- ...
# [4] = patients with T2DM; ref Gerstein et al., 2021; cited from earlier work
Substance,"CL, clearance [1]","BIOA1, dose fraction absorbed via the first-order pathway [2]","BIOA2, dose fraction absorbed via the transit-compartment pathway [2]","BIOF, logit parameter expressing the fraction of dose absorbed via the first-order and transit pathway [2]","CL/F in T2DM, clearance for patients with T2DM [2]","CL/F in obesity, clearance for obesity [2]",Covariate effect (θ) of body weight on CL/F [2],Covariate effect (θ) of body weight on ka [2],Expected time to steady state [2],Higher clearance (CL/F) in T2DM than in obesity [2],"MTT, mean transit time [2]",Model-derived effective half-life [2],"N, number of transit compartments [2]",VSS [2],"Q/F, inter-compartment clearance ([2]; sc)","VC/F, volume of the central compartment ([2]; sc)","VP/F, volume of the peripheral compartment ([2]; sc)","ka, absorption rate constant ([2]; sc)",Clinically reported half-life [3],Weight loss [4]
dulaglutide: another Fc-fusion GLP-1 receptor agonist,0.059 L/h,,,,,,,,,,,,,,,,,,,
efpeglenatide,,0.248 ^a,0.752 ^b,−1.11 [27.59],0.044 [1.50] L/h,0.032 [1.79] L/h,0.964 [6.75],−0.927 [14.24],≈ 4 weeks,38%,2.680 [13.47] hour,6 to 7 days,5.520 [22.28],≈ 6.8 L,0.073 [11.14] L/h,2.80 [7.39] L,3.96 [6.57] L,0.006 [4.33] 1/h,5.6 to 7.5 days,6%–7%
